Experimental data from publication PMC7955049, “ADAR1 RNA editing enzyme regulates R-loop formation and genome stability at telomeres in cancer cells” (Nature Communications, 2021).

Biological target: T1, FLAG-ADAR1p110-WT (UniProt P55265-5 1-931)
T1 construct: ADAR1 (ADAR, DRADA), nuclear p110 isoform, wild type; also called F-ADAR1p110-WT; F-ADAR1p110; source: HEK293T, stably expressing (p3XFLAG-CMV-10 plasmid co-transfected with pPUR), in lysate of formaldehyde-fixed cells
T1 sequence (looked up): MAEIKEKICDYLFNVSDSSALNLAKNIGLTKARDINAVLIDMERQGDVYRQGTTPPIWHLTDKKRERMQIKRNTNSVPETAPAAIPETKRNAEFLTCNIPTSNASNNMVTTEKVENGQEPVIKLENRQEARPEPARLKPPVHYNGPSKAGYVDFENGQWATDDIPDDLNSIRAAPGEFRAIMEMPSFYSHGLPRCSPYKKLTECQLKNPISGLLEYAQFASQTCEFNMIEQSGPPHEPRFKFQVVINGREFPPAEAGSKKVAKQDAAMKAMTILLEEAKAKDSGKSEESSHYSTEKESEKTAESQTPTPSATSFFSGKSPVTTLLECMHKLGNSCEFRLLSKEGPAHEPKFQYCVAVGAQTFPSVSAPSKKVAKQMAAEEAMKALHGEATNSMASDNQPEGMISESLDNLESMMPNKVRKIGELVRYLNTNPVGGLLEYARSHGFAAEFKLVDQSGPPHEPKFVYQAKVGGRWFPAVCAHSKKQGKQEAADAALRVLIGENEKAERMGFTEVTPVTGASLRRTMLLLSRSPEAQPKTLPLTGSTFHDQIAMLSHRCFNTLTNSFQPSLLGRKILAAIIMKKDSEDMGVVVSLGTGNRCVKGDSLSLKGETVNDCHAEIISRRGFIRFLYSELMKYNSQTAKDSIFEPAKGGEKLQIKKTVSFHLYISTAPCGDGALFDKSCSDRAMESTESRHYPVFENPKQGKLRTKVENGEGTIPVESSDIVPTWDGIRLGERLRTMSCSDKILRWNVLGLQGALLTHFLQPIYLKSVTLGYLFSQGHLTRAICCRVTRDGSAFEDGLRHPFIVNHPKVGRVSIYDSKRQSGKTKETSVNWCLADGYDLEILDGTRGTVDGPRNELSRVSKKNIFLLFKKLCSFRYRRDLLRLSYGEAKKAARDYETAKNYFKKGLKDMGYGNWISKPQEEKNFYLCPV
Experiment: co-IP; cells expressing the FLAG-tagged bait fixed with 0.3% formaldehyde, lysed in co-IP buffer (50 mM Tris-HCl pH 7.6, 150 mM NaCl, 1 mM EDTA, 1% NP-40, 0.5% sodium deoxycholate, 0.1% SDS, RNasin Plus) and sonicated; anti-FLAG M2 magnetic beads overnight at 4 °C; immunoblot; for Fig. 10c HEK293T cells unsynchronized or synchronized at M phase (thymidine-nocodazole)
Settings: partners not purified

B1: RNase H2A (natural protein, human (endogenous in HEK293T), UniProt O75792 1-299, looked up)
chain: MDLSELERDNTGRCRLSSPVPAVCRKEPCVLGVDEAGRGPVLGPMVYAICYCPLPRLADLEALKVADSKTLLESERERLFAKMEDTDFVGWALDVLSPNLISTSMLGRVKYNLNSLSHDTATGLIQYALDQGVNVTQVFVDTVGMPETYQARLQQSFPGIEVTVKAKADALYPVVSAASICAKVARDQAVKKWQFVEKLQDLDTDYGSGYPNDPKTKAWLKEHVEPVFGFPQFVRFSWRTAQTILEKEAEDVIWEDSASENQEGLRKITSYFLNEGSQARPRSSHRYFLERGLESATSL
notes: RNase H2 subunit A (RNaseH2A, AGS4), endogenous; also called RNase H2 subunit H2A; endogenous RNase H2A; source: endogenous, HEK293T lysate
In the case of B1, the “fold increase of the co-IP in M-phase synchronized against unsynchronized cells” value is reported as over 3 fold.
